In patent US20180064827:

Tests used:
Assay in all cases: cell_activity
ZFN 69903 (synthetic) = conditions: pair with 69912, 0.1 ug mRNA, MK2
ZFN 69908 (synthetic) = conditions: pair with 69912, 0.1 ug mRNA, MK2
ZFN 69909 (synthetic) = conditions: pair with 69912, 0.1 ug mRNA, MK2
ZFN 60137 (synthetic) = conditions: pair with 60334, K562
ZFN 60423 (synthetic) = conditions: pair with 64793, Hepa1-6
ZFN 64842 (synthetic) = conditions: pair with 64793, Hepa1-6
ZFN 64844 (synthetic) = conditions: pair with 64793, Hepa1-6
ZFN 64555 (synthetic) = conditions: pair with 66075, 5 ug/mL
ZFN 25277 (synthetic) = conditions: pair with 25264, K562, 200 ng
ZFN 60460 (synthetic) = conditions: pair with 64982, Hepa1-6
ZFN 64969 (synthetic) = conditions: pair with 64982, Hepa1-6
ZFN 64971 (synthetic) = conditions: pair with 64982, Hepa1-6
ZFN 60412 (synthetic) = conditions: pair with 64951, Hepa1-6
ZFN 64944 (synthetic) = conditions: pair with 64952, Hepa1-6
ZFN 64946 (synthetic) = conditions: pair with 64951, Hepa1-6
ZFN 64947 (synthetic) = conditions: pair with 64952, Hepa1-6
ZFN 60309 (synthetic) = conditions: pair with 60308, K562
ZFN 60393 (synthetic) = conditions: pair with 64989, Hepa1-6
ZFN 65021 (synthetic) = conditions: pair with 64989, Hepa1-6
ZFN 65022 (synthetic) = conditions: pair with 64989, Hepa1-6
ZFN 60392 (synthetic) = conditions: pair with 65022, Hepa1-6
ZFN 64989 (synthetic) = conditions: pair with 65021, Hepa1-6
ZFN 64992 (synthetic) = conditions: pair with 65021, Hepa1-6
ZFN 64552 (synthetic) = conditions: pair with 66083 or 66084, 5 ug/mL
ZFN 66075 (synthetic) = conditions: pair with 64555, 5 ug/mL
ZFN 66079 (synthetic) = conditions: pair with 64555, 5 ug/mL
ZFN 60134 (synthetic) = conditions: pair with 60133, K562
ZFN 60259 (synthetic) = conditions: pair with 60254, K562
ZFN 69922 (synthetic) = conditions: pair with 69916, 0.1 ug mRNA, MK2
ZFN 69925 (synthetic) = conditions: pair with 69916, 0.1 ug mRNA, MK2
ZFN 69926 (synthetic) = conditions: pair with 69915, 0.1 ug mRNA, MK2
ZFN 69928 (synthetic) = conditions: pair with 69916, 0.1 ug mRNA, MK2
ZFN 69929 (synthetic) = conditions: pair with 69920, 0.1 ug mRNA, MK2
ZFN 60308 (synthetic) = conditions: pair with 60309, K562
ZFN 58780 (synthetic) = conditions: pair with 65094, Hepa1-6
ZFN 65085 (synthetic) = conditions: pair with 65098, Hepa1-6
ZFN 65086 (synthetic) = conditions: pair with 65094, Hepa1-6
ZFN 60422 (synthetic) = conditions: pair with 64842, Hepa1-6
ZFN 64791 (synthetic) = conditions: pair with 64842, Hepa1-6
ZFN 64793 (synthetic) = conditions: pair with 64842, Hepa1-6
ZFN 64802 (synthetic) = conditions: pair with 64842, Hepa1-6
ZFN 64347 (synthetic) = conditions: pair with 60751, HepG2, 40 ug/mL

## GTGGAGGCTGCCCGGCACCTACGTGGTG (double strand) [M. mulatta PCSK9 exon 2 left]
ZFN 69903 (synthetic)
  activity: 33.7 % indel
ZFN 69908 (synthetic)
  activity: 42.5 % indel
ZFN 69909 (synthetic)
  activity: 58.7 % indel

## AGATGGGGGTCTTACCGGGGGGCTGGTA (double strand) [human PCSK9 60137 site]
ZFN 60137 (synthetic)
  activity: 67.9 % indel

## GGCACGCTGTTGAAGTCGGTGATGGTGA (double strand) [mouse PCSK9 site A right]
ZFN 60423 (synthetic)
  activity: 35.8 % indel
ZFN 64842 (synthetic)
  activity: 44.9 % indel
ZFN 64844 (synthetic)
  activity: 42.9 % indel

## TCCCAGCTGATAGATGGGTCTATTGCTT (double strand) [M. mulatta HAO1 right]
ZFN 64555 (synthetic)
  activity: 86.9 % indel

## GAAAGGGACTGAAGCTGCTGGGGCCATG (double strand) [SERPINA1 25277 site]
ZFN 25277 (synthetic)
  activity: 40.9 % indel

## GTGGGACCTCACAGGCTGCTGCCCACGT (double strand) [mouse PCSK9 site F left]
ZFN 60460 (synthetic)
  activity: 53.8 % indel
ZFN 64969 (synthetic)
  activity: 86.1 % indel
ZFN 64971 (synthetic)
  activity: 95.9 % indel

## GCTAAGTGCATGGCTGTCTGGTTCTGTA (double strand) [mouse PCSK9 site E left]
ZFN 60412 (synthetic)
  activity: 28.6 % indel
ZFN 64944 (synthetic)
  activity: 49.1 % indel
ZFN 64946 (synthetic)
  activity: 51.3 % indel
ZFN 64947 (synthetic)
  activity: 42 % indel

## TATCCCCGGCGGGCAGCCTGGGCCTGCA (double strand) [human PCSK9 60309 site]
ZFN 60309 (synthetic)
  activity: 71.8 % indel

## TCCTCCTGGGACGGGAGGGCGAGCATCA (double strand) [mouse PCSK9 site G right]
ZFN 60393 (synthetic)
  activity: 60.9 % indel
ZFN 65021 (synthetic)
  activity: 83.3 % indel
ZFN 65022 (synthetic)
  activity: 76.3 % indel

## AGGATGGAGATTATGAAGAGCTGATGCT (double strand) [mouse PCSK9 site G left]
ZFN 60392 (synthetic)
  activity: 69.2 % indel
ZFN 64989 (synthetic)
  activity: 83.3 % indel
ZFN 64992 (synthetic)
  activity: 79.8 % indel

## ACTTGCTGCATATGTGGCTAAAGCAATA (double strand) [M. mulatta HAO1 left]
ZFN 64552 (synthetic)
  activity: 80.6 % indel
ZFN 66075 (synthetic)
  activity: 86.9 % indel
ZFN 66079 (synthetic)
  activity: 84.2 % indel

## TTACCGGGGGGCTGGTATTCATCCGCCC (double strand) [human PCSK9 60134 site]
ZFN 60134 (synthetic)
  activity: 72.6 % indel

## GAGGCTGGGGAGTAGAGGCAGGCATCGT (double strand) [human PCSK9 60259 site]
ZFN 60259 (synthetic)
  activity: 75.7 % indel

## GGGGTGGTGACTTACCAGCCACGTGGGC (double strand) [M. mulatta PCSK9 exon 7 right]
ZFN 69922 (synthetic)
  activity: 81.4 % indel
ZFN 69925 (synthetic)
  activity: 77 % indel
ZFN 69926 (synthetic)
  activity: 37 % indel
ZFN 69928 (synthetic)
  activity: 69.2 % indel
ZFN 69929 (synthetic)
  activity: 43.3 % indel

## TGCAGGCGGCGGGCAGTGCGCTCTGACT (double strand) [human PCSK9 60308 site]
ZFN 60308 (synthetic)
  activity: 71.8 % indel

## CTGGAGGCTGCCAGGAACCTACATTGTG (double strand) [mouse PCSK9 site J left]
ZFN 58780 (synthetic)
  activity: 69.6 % indel
ZFN 65085 (synthetic)
  activity: 73.5 % indel
ZFN 65086 (synthetic)
  activity: 77.8 % indel

## TCGGGAGATTGAGGGCAGGGTCACCATC (double strand) [mouse PCSK9 site A left]
ZFN 60422 (synthetic)
  activity: 35 % indel
ZFN 64791 (synthetic)
  activity: 41.8 % indel
ZFN 64793 (synthetic)
  activity: 44.9 % indel
ZFN 64802 (synthetic)
  activity: 43 % indel

## TCTTACTGGAAGGCACTTGGCATCTCCC (double strand) [human TTR 64347 site]
ZFN 64347 (synthetic)
  activity: 63.5 % indel
